Consider seven molecules from patent US20240400711A1 (SOUND BIOPHARMACEUTICALS, published 2024).

The labels stand for the following.
B1: FTL004-hu-8 (antibody, human IgG1, kappa, V domains shown)
VH: QVQLVQSGAEVKKPGASVKVSCKASGYTFTDYNVHWIRQAPGQGLEWIGYFYPRNGATHYAQKFQGRVTMTVDTSTSTAYMELSSLRSEDTAVYYCARGETPGTFPYWGQGTLVTVSS
VL: DIVLTQSPASLAVSPGQRATITCRASESVDNFGITFMHWYQQKPGQPPKLLIYRASNLESGVPARFSGSGSRTDFTLTINPVEANDTANYYCQQSSKDPRTFGQGTKLEIKR
notes: also called FLT004-hu-8; FTL004-hum-8
B2: FTL004-hu-2 (antibody, human IgG1, kappa, V domains shown)
VH: QVQLVQSGSELKKPGASVKVSCKASGYTFTDYNVHWIRQAPGQGLEWIGYFYPRNGATHYAQGFTGRAVLSADTSVSTAYLQISSLKAEDTAVYYCARGETPGTFPYWGQGTLVTVSS
VL: DIVLTQSPASLAVSPGQRATITCRASESVDNFGITFMHWYQQKPGQPPKLLIYRASNLESGVPARFSGSGSRTDFTLTINPVEANDTANYYCQQSSKDPRTFGQGTKLEIKR
notes: also called FLT004-hu-2; FTL004-hum-2
B3: FTL004-hu-9 (antibody, human IgG1, kappa, V domains shown)
VH: QVQLVQSGAEVKKPGASVKVSCKASGYTFTDYNVHWIRQAPGQGLEWIGYFYPRNGATHYNQKFTGRATLTVDTSTSTAYMEISSLRSEDTAVYFCARGETPGTFPYWGQGTLVTVSS
VL: EIVLTQSPATLSLSPGERATLSCRASESVDNFGITFMHWYQQKPGQAPRLLIYRASNLESGIPARFSGSGSRTDFTLTISSLEPEDFAVYYCQQSSKDPRTFGQGTKLEIKR
notes: also called FLT004-hu-9; FTL004-hum-9
B4: FTL004-hu-3 (antibody, human IgG1, kappa, V domains shown)
VH: QVQLVQSGSELKKPGASVKVSCKASGYTFTDYNVHWIRQAPGQGLEWIGYFYPRNGATHYNQKFTGRAVLSADTSVSTAYLQISSLKAEDTAVYFCARGETPGTFPYWGQGTLVTVSS
VL: EIVLTQSPATLSLSPGERATLSCRASESVDNFGITFMHWYQQKPGQAPRLLIYRASNLESGIPARFSGSGSRTDFTLTISSLEPEDFAVYYCQQSSKDPRTFGQGTKLEIKR
notes: also called FLT004-hu-3; FTL004-hum-3
B5: FTL004-hu-13 (antibody, human IgG1, kappa, V domains shown)
VH: EVQLVQSGAEVKKPGATVKISCKASGYTFTDYNVHWIQQAPGKGLEWIGYFYPRNGATHYNQKFTGRATLTADTSTDTAYMEISSLRSEDTAVYFCARGETPGTFPYWGQGTLVTVSS
VL: DIVLTQSPASLAVSPGQRATITCRASESVDNFGITFMHWYQQKPGQPPKLLIYRASNLESGVPARFSGSGSRTDFTLTINPVEANDTANYYCQQSSKDPRTFGQGTKLEIKR
notes: also called FLT004-hu-13; FTL004-hum-13
B6: FTL004-hu-15 (antibody, human IgG1, kappa, V domains shown)
VH: EVQLVQSGAEVKKPGATVKISCKASGYTFTDYNVHWIQQAPGKGLEWIGYFYPRNGATHYNQKFTGRATLTADTSTDTAYMEISSLRSEDTAVYFCARGETPGTFPYWGQGTLVTVSS
VL: EIVLTQSPATLSLSPGERATLSCRASESVDNFGITFMHWYQQKPGQAPRLLIYRASNLESGIPARFSGSGSRTDFTLTISSLEPEDFAVYYCQQSSKDPRTFGQGTKLEIKR
notes: also called FLT004-hu-15; FTL004-hum-15
B7: FTL004-hu-4 (antibody, human IgG1, kappa, V domains shown)
VH: QVQLVQSGSELKKPGASVKVSCKASGYTFTDYNVHWIRQAPGQGLEWIGYFYPRNGATHYAQGFTGRAVLSADTSVSTAYLQISSLKAEDTAVYYCARGETPGTFPYWGQGTLVTVSS
VL: EIVLTQSPATLSLSPGERATLSCRASESVDNFGITFMHWYQQKPGQAPRLLIYRASNLESGIPARFSGSGSRTDFTLTISSLEPEDFAVYYCQQSSKDPRTFGQGTKLEIKR
notes: also called FLT004-hu-4; FTL004-hum-4

For orientation: Kd means the concentration at which binding is half-saturated. Broadly, the koff is the rate constant with which the complex falls apart. By kon is commonly meant a measure of how fast the partners come together.

This assay addresses T1, recombinant extracellular domain of CD38 (human, UniProt P28907 43-300).
T1 construct: also called CD38 extracellular domain; AtaGenix ATMP00140HU
The assay can be described thus: Biacore SPR. (In general: Surface plasmon resonance follows binding to a sensor surface in real time, without labels.)
On to B1, for which the equilibrium dissociation constant (Kd) was determined as 8.39 nM, the koff stood at 0.00257 s⁻¹ and the kon came out at 307000 M⁻¹ s⁻¹.
For the molecule B2, the Kd amounted to 8.3 nM, the koff was determined as 0.00285 s⁻¹ and the kon came out at 344000 M⁻¹ s⁻¹.
Turning to B3, the Kd amounted to 3.04 nM, the koff amounted to 0.000699 s⁻¹ and the kon is 230000 M⁻¹ s⁻¹.
In the same order, the values of B4 are 1.5 nM, 0.00052 s⁻¹ and 347000 M⁻¹ s⁻¹.
Regarding B5, the Kd was determined as 2.78 nM, the koff came out at 0.000853 s⁻¹ and the kon came out at 307000 M⁻¹ s⁻¹.
In the same order, the values of B6 are 3.66 nM, 0.000784 s⁻¹ and 214000 M⁻¹ s⁻¹.
On the same counts, the results for B7 are 10.5 nM, 0.00313 s⁻¹ and 297000 M⁻¹ s⁻¹.
